Reference: article PMC2173270 (The Journal of Cell Biology, 2002)
No end group written: not given here. *: point of attachment. Biotin = O=C1N[C@H]2[C@H](CS[C@H]2CCCCC(=O)*)N1

T1: GS15 (endogenous) (rat (endogenous in rat liver Golgi …, UniProt O35152 1-111))
T1 sequence: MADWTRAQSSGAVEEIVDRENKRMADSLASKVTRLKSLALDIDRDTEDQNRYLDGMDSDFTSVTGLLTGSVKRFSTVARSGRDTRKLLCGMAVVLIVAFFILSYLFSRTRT

T2: p115 (rat, UniProt P41542 1-959)
T2 sequence: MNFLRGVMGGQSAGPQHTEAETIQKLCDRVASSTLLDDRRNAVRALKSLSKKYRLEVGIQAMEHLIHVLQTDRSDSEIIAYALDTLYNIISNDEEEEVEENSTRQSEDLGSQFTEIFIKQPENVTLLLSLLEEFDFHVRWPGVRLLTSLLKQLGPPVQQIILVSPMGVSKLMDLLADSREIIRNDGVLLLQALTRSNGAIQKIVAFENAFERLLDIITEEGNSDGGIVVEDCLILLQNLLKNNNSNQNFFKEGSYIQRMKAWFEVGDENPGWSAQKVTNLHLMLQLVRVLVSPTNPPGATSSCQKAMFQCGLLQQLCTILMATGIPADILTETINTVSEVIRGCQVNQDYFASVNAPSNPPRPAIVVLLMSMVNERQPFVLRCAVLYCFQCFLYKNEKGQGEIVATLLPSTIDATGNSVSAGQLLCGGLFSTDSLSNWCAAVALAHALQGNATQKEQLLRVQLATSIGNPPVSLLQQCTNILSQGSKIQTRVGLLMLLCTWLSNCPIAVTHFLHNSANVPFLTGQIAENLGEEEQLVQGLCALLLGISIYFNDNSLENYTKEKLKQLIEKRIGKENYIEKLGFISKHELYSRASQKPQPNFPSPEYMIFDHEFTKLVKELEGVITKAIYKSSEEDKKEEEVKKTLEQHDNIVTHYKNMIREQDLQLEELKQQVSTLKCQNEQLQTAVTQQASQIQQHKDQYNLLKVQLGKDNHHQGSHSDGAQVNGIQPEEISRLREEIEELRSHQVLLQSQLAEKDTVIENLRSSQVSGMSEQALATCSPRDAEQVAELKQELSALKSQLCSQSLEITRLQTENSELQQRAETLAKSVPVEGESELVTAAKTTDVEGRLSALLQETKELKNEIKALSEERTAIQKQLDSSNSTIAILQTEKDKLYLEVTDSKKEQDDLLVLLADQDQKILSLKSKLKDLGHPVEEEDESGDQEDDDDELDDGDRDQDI

B1: CC1 (aa 637–699 of rat p115) (peptide)
peptide: Biotin-KEEEVKKTLEQHDNIVTHYKNMIREQDLQLEELKQQVSTLKCQNEQLQTAVTQQASQIQQHKD
B2: Ykt6p (endogenous) (natural protein)
chain: MKLYSLSVFYKGEPKAVLLKAAYDVSSFSFFQRSSVQEFMTFTSQLIVERSAKGSRASVKEQEYLCHVYVRSDSLAGVVIADSEYPSRVAFTLLEKVLDEFSKQVDRIDWPVGSPATIHYTALDGHLSRYQNPREADPMSKVQAELDETKIILHNTMESLLERGEKLDDLVSKSEVLGTQSKAFYKTARKQNSCCAIM
B3: syntaxin-5 (endogenous) (natural protein)
chain: MIPRKRYGSKNTDQGVYLGLSKTQVLSPATAINSSSDIAPLPTPVALVPSPPDTMSCRDRTQEFLSACKSLQSRQNGIQTNKPALHATRQCSEFTLMARRIGKDLSNTFAKLEKLTILAKRKSLFDDKAVEIEELTYIIKQDINSLNKQIAQLQDFVRAKGSQSGRHLQTHSNTIVVSLQSKLASMSNDFKSVLEVRTENLKQQRNRREQFSRAPVSALPLAPNNLGGGPIVLGGESRASRDVAIDMMDPRTSQQLQLIDEQDSYIQSRADTMQNIESTIVELGSIFQQLAHMVKEQEETIQRIDENVLGAQLDVEAAHSEILKYFQSVTSNRWLMVKIFLILIVFFIIFVVFLA
B4: CC4 (aa 843–930 of rat p115) (peptide)
peptide: TTDVEGRLSALLQETKELKNEIKALSEERTAIQKQLDSSNSTIAILQTEKDKLYLEVTDSKKEQDDLLVLLADQDQKILSLKSKLKDL
modifications: NH2-terminally biotinylated
B5: His–GOS-28 (domain or fragment)
chain: AAGTSNYWEDLRKQARQLENELDLKLVSFSKLCTSYSHSSARDGGRDRYSSDTTPLLNGSSQDRMFETMAIEIEQLLARLTGVNDKMAEYTHSAGVPSLNAALMHTLQRHRDILQDYTHEFHKTKANFMAIRERENLMGSVRKDIESYKSGSGVNNRRTELFLKEHDHLRNSDRLIEETISIAMATKENMTSQRGMLKSIHSKMNTLANRFPAVNSLIQRINLRKRRD
B6: GST–syntaxin-5 (domain or fragment)
chain: MIPRKRYGSKNTDQGVYLGLSKTQVLSPATAINSSSDIAPLPTPVALVPSPPDTMSCRDRTQEFLSACKSLQSRQNGIQTNKPALHATRQCSEFTLMARRIGKDLSNTFAKLEKLTILAKRKSLFDDKAVEIEELTYIIKQDINSLNKQIAQLQDFVRAKGSQSGRHLQTHSNTIVVSLQSKLASMSNDFKSVLEVRTENLKQQRNRREQFSRAPVSALPLAPNNLGGGPIVLGGESRASRDVAIDMMDPRTSQQLQLIDEQDSYIQSRADTMQNIESTIVELGSIFQQLAHMVKEQEETIQRIDENVLGAQLDVEAAHSEILKYFQSVTSNR
B7: GOS-28 (endogenous) (natural protein)
chain: MAAGTSNYWEDLRKQARQLENELDLKLVSFSKLCTSYSHSSARDGGRDRYSSDTTPLLNGSSQDRMFETMAIEIEQLLARLTGVNDKMAEYTHSAGVPSLNAALMHTLQRHRDILQDYTHEFHKTKANFMAIRERENLMGSVRKDIESYKSGSGVNNRRTELFLKEHDHLRNSDRLIEETISIAMATKENMTSQRGMLKSIHSKMNTLANRFPAVNSLIQRINLRKRRDSLILGGVIGICTILLLLYAFH

Assays:
[1] = biological target: the molecule itself; test: SEC + other: laser light scattering + native gel or EMSA
GS15 (endogenous) = biological target: T1, GS15 (endogenous); test: co-IP
p115 = biological target: T2, p115; test: pull-down
GST–syntaxin-5 = biological target: B6; test: pull-down

Row | Binder | percent dimeric [1] | percent tetrameric [1] | fold enhancement of complex formation by p115 against no p115 (GS15 (endogenous)) | further results
1 | B1 | ~20% | ~10% | – | –
2 | B2 | – | – | ~5 fold | –
3 | B3 | – | – | ~5 fold | –
4 | B4 | ~20% | ~10% | – | –
5 | Biotin-DAEQVAELKQELSALKSQLCSQSLEITRLQTENSELQQRAETLAK [CC3 (aa 783–827 of rat p115)] | ~20% | ~10% | – | –
6 | B5 | – | – | – | Kd (p115): 1.5 µM; fold stimulation of the interaction by p115 against no p115 (GST–syntaxin-5): 4 fold
7 | Biotin-QPEEISRLREEIEELRSHQVLLQSQLAEKDTVIENLRS [CC2 (aa 728–765 of rat p115)] | ~20% | ~10% | – | –
8 | B6 | – | – | – | Kd (p115): 1.8 µM
9 | B7 | – | – | ~5 fold | –
